Assay results: PMC10602876, “Global profiling of ribosomal protein acetylation reveals essentiality of acetylation homeostasis in maintaining ribosome assembly and function” (Nucleic Acids Research, 2023)
Changes are numbered by the printed parent chain. In names and notes the source's numbering stands.

B1: 50S large subunit ribosomal protein L7/L12, wild type, His-tagged (natural protein, S. Typhimurium, UniProt P0A299 1-121, looked up)
chain: MSITKDQIIEAVSAMSVMDVVELISAMEEKFGVSAAAAVAVAAGPAEAAEEKTEFDVILKAAGANKVAVIKAVRGATGLGLKEAKDLVESAPAALKEGVSKDDAEALKKSLEEAGAEVEVK
notes: 50S ribosomal protein L7/L12 (RplL), S. Typhimurium strain 14028S, gene amplified from the genomic DNA; The r-protein genes seem to have been cloned into pSUMO3; also called WT L7/L12; RplL; source: E. coli BL21, purified (Ni-NTA); not shown: His6, C-terminal, kept
B2: L7/L12 K65R, His-tagged (natural protein)
chain: B1 chain with K66R
notes: 50S ribosomal protein L7/L12 (RplL), S. Typhimurium strain 14028S; Mimic of the non-acetylated form; same construct as m2 with the substitution; source: E. coli, purified (Ni-NTA); not shown: His6, C-terminal, kept
B3: L7/L12 K70Q, His-tagged (natural protein)
chain: B1 chain with K71Q
notes: 50S ribosomal protein L7/L12 (RplL), S. Typhimurium strain 14028S; Acetylation mimic; same construct as m2 with the substitution; source: E. coli, purified (Ni-NTA); not shown: His6, C-terminal, kept
B4: L7/L12 K65Q, His-tagged (natural protein)
chain: B1 chain with K66Q
notes: as for B3
B5: L7/L12 K70R, His-tagged (natural protein)
chain: B1 chain with K71R
notes: as for B2

These binders were tested against T1, Elongation factor EF-Tu, His-tagged, biotinylated (S. Typhimurium, UniProt P0A1H5 1-394, biotin (site not stated)) (assay: BLI; printed as thin-film interferometry (TFI), GatorPrime label-free analyzer; biotinylated EF-Tu loaded on the sensors; L7/L12 or mutants in solution at 12.5, 6.25, 3.125, 1.563, 0.781 and 0.391 uM in binding buffer at pH 7.4). Conditions: both partners purified.
T1 construct: Elongation factor Tu (tufA), S. Typhimurium strain 14028S, gene amplified from the genomic DNA; The methods sentence on vectors (pSUMO3 and pQE80, 'respectively') leaves open which vector was used; probably pQE80 with a C-terminal 6xHis; also called tufA; source: E. coli BL21, purified (Ni-NTA); biotinylated, PD-10 column; not shown: His6, C-terminal, kept
T1 sequence (P0A1H5 whole entry): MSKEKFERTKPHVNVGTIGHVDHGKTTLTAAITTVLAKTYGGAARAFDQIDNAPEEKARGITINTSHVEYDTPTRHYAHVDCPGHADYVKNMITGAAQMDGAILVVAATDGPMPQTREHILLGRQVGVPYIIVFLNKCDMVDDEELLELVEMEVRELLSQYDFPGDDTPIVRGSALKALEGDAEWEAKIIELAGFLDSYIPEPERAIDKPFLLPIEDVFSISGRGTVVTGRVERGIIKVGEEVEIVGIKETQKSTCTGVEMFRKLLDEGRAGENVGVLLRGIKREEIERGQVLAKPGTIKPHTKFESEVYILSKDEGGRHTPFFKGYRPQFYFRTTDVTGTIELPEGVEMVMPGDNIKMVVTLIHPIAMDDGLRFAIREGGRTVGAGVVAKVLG

Row | Binder | Kd [nM]
1 | B1 | 740
2 | B2 | 2690
3 | B3 | 1310
4 | B4 | 1520
5 | B5 | 1810
